# Data reported in patent US20090291081A1 (AbbVie / Abbott, published 2009).
# Changes are numbered by the printed parent chain.
# T1: human IL-1α (human, UniProt P01583 113-271)
# T1 construct: also called IL-1alpha; hIL-1α
# T1 sequence (looked up): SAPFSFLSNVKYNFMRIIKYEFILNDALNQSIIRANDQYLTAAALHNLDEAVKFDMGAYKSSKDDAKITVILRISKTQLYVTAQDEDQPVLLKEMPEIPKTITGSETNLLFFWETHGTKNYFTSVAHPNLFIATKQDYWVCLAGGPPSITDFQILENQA
# B1: ABT1-141-7 (other)
# VL: DIQMTQSPSSLSASVGDRITITCRASQWIQKQLAWYQLKPGKAPKLLIYSSSYLQSGVPSRFSGSGSGTDFTLTISSLQPEDFATYYCQQHLRVPFTFGQGTKVEIKR
# notes: VK dAb
# B2: ABT1-141-14 (other)
# VL: B1 VL with I19V, L38Q, K45R, H91N, R93S
# notes: VK dAb
# B3: ABT1-141-22 (other)
# VL: B1 VL with I19V, L38Q, H91Q, L92M, R93A, V94P, F96R
# notes: VK dAb
# B4: ABT1-141-21 (other)
# VL: B1 VL with I19V, L38Q, H91Q, L92M, R93S, V94S, F96R
# notes: VK dAb
# B5: ABT1-141-23 (other)
# VL: B1 VL with I19V, L38Q, H91Q, L92M, R93Q, V94P, F96R
# notes: VK dAb
# B6: ABT1-141-16 (other)
# VL: B1 VL with I19V, T20A, L38Q, Q90H
# notes: VK dAb
# B7: ABT1-172 (other)
# VL: DIQMTQSPSSLSASVGDRVTITCRASQRIRNGLEWYQQKPGKAPKLLIWGSSRLQSGVPSRFSGSGSGTDFTLTISSLQPEDFATYYCAQTVWGPATFGQGTKVEIKR
# notes: VK dAb
# B8: ABT1-3 (other)
# VL: DIQMTQSPSSLSASVGDRVTITCRASQSIWTELKWYQQKPGKAPKLLIYGASLLQSGVPSRFSGSGSGTDFTLTISSLQPEDFATYYCQQFAYFPFTFGQGTKVEIKR
# B9: ABT1-10 (other)
# VL: B8 VL with W30V, T31P, E32N, K34R, L53T, F91G, A92Y, Y93V, F94Y, F96G
# B10: ABT1-9 (other)
# VL: B8 VL with W30G, T31S, E32S, K34L, G50L, L53R, A92R, Y93S, F94T, F96N
# B11: ABT1-11 (other)
# VL: DIQMTQSPSSLSASVGDRVTITCRASQSIPYNLRWYQQKPGKAPKLLIYSASRLQSGVPSRFSGSGSGTDFTLTISSLQPEDFATYYCQQGYSWPMTFGQGTKVEIKR
# B12: ABT1-95-137 (other)
# VL: B11 VL with S28P, P30V, Y31R, A51S, R53Y, Q55E, S56P, Y87H, S93L, M96V
# B13: ABT1-95-135 (other)
# VL: B11 VL with S28P, P30V, Y31R, A51S, R53Y, Q55E, S56P, Y87H, M96V
# B14: ABT1-95-51 (other)
# VL: B11 VL with S28P, P30I, Y31R, A51S, R53Y, Q55E, S56P, Y87H, S93R, M96V
# B15: ABT1-146 (other)
# VL: DIQMTQSPSSLSASVGDRVTITCRASQNIKTFLHWYQQKPGKAPKLLIYRVSHLQSGVPSRFSGSGSGTDFTLTISSLQPEDFATYYCQQEYRIPLTFGQGTKVEIKR
# notes: VK dAb
# B16: ABT1-18 (other)
# VL: DIQMTQSPSSLSASVGDRVTITCRASQSIQRWLAWYQQKPGKAPKLLIYFASQLQSGVPSRFSGSGSGTDFTLTISSLQPEDFATYYCQQLLRLPKTFGQGTKVEIKR
# B17: ABT1-141-1 (other)
# VL: B1 VL with I19V, L38Q, S51G, Y53W, F98L
# notes: VK dAb
# B18: ABT1-141-18 (other)
# VL: B1 VL with I19V, L38Q, A43V
# notes: VK dAb
# B19: ABT1-67 (other)
# VL: B16 VL with Q30H, W32S, A34R, F50H, Q53H, L91Y, L92K, L94R, K96S
# B20: ABT1-141-9 (other)
# VL: B1 VL with M4V, I19V, L38Q, Y53W
# notes: VK dAb
# B21: ABT1-141-6 (other)
# VL: B1 VL with I19V, L38Q, Q89L
# notes: VK dAb
# B22: ABT1-141-19 (other)
# VL: B1 VL with I19V, L38Q, Y53W, P59R
# notes: VK dAb
# B23: ABT1-141-46 (other)
# VL: B1 VL with I19V, L38Q, Y53H, F96M, E105V
# notes: VK dAb
# B24: ABT1-141-8 (other)
# VL: B1 VL with I19V, Y53W
# notes: VK dAb
# B25: ABT1-142 (other)
# VL: B11 VL with P30N, Y31D, N32V, R34A, K45R, R53Y, G91Y, Y92I, W94L, M96F
# notes: VK dAb
# B26: ABT1-141-3 (other)
# VL: B1 VL with I19V, L38Q, A43T, S51Q, Y53H
# notes: VK dAb
# B27: ABT1-141-17 (other)
# VL: B1 VL with I19V
# notes: VK dAb
# B28: ABT1-95-181 (other)
# VL: DIQMTQSPSSLSASVGDRVTITCRASKPIVRNMRWYQQKPGKAPKLLIYSVSYLEPGVPSRFSGSGSGTDFTLTISSLQPEDFATYHCLQGYRWPPTFGQGTKVEIKR
# B29: ABT1-95-86 (other)
# VL: B28 VL with K27Q, M33L, V51T, L89Q, P96V
# B30: ABT1-155 (other)
# VL: B11 VL with Q27S, S28P, P30V, Y31A, S50A, R53S, Q89T, S93V, M96P
# B31: ABT1-95-177 (other)
# VL: B28 VL with K27Q, M33L, S50A, V51S, L89R, P96V
# B32: ABT1-95-174 (other)
# VL: B28 VL with K27R, M33L, L89R, P96V
# B33: ABT1-221 (other)
# VL: DIQMTQSPSSLSASVGDRVTITCRASQDIWPYLMWYQQKPGKAPKLLIYYSSMLQSGVPSRFSGSGSGTDFTLTISSLQPEDFATYYCQQFRRWPYTFGQGTKVEIKR
# B34: ABT1-95-182 (other)
# VL: B28 VL with I29G, M33L
# B35: ABT1-95-A2 (other)
# VL: B28 VL with A25I, S26L, K27Q, I29P, V30G, M33L, V51K, Y53F, L89Q, P96V
# B36: ABT1-95-133 (other)
# VL: B28 VL with K27Q, M33L, V51S, L89R, P96V
# B37: ABT1-95-134 (other)
# VL: B28 VL with K27Q, M33L, V51S, L89A, P96V
# B38: ABT1-95-136 (other)
# VL: B28 VL with K27Q, M33L, V51S, Q79H, F83L, L89Q, R93G, P96V
# B39: ABT1-95-164 (other)
# VL: B28 VL with K27Q, I29G, M33L, V51S, L89Q, P96V
# B40: ABT1-95-163 (other)
# VL: B28 VL with K27R, M33L, V51S, L89Q, P96V
# B41: ABT1-95-162 (other)
# VL: B28 VL with M33L, V51S, L89Q, P96V
# B42: ABT1-159 (other)
# VL: DIQMTQSPSSLSASVGDRVTITCRASSPIGMDLFWYQQKPGKAPRLLIDGVSGLQSGVPSRFSGSGSGTDFTLTISSLQPEDFATYYCSQHWPAPLTFGQGTKVEIKR
# notes: VK dAb
# B43: ABT1-143 (other)
# VL: DIQMTQSPSSLSASVGDRVTITCRASQRIDRHLSWYQQKPGKAPKLLIYKTSKLQSGVPSRFSGSGSGTDFTLTISSLQPEDFATYYCQQLHAKPFTFGQGTKVEIKR
# notes: VK dAb
# B44: ABT1-22 (other)
# VH: EVQLLESGGGLVQPGGSLRLSCAASGFTLKAYNMSWVRQAPGKGLEWVSLISSTGMFTDYADSVKGRFTISRDNSKNTLYLQMNSLRAEDTAVYYCAKWGVRRGLYFDYWGQGTLVTVSS
# B45: ABT1-144 (other)
# VL: DIQMTQSPSSLSASVGDRVTITCRASQRIKKYLAWYQQKPGKAPRLLIYRSSQLQSGVPSRFSGSGSGTDFTLTISSLQPEDFATYYCQQSFKRPVTFGQGTKVEIKR
# notes: VK dAb
# B46: ABT1-20 (other)
# VH: EVQLLETGGGLVQPGGSLRLSCAASGFTFTPYRMGWVRQAPGKGLEWVSHIGIWGANTYYADSVKGRFTISRDNSKNTLYLQMNSLRAEDTAVYYCAKHPRPFDYWGQGTLVTVSS
# B47: ABT1-23 (other)
# VH: EVQLLESGGGLVQPGGSLRLSCAASGFTFSSYPMEWVRQAPGKGLEWVSAIAWPGSMTYYADSVKGRFTISRDNSKNTLYLQMNSLRAEDTAVYYCAKTHRLFDYWGQGTLVTVSS
# B48: ABT1-145 (other)
# VL: DIQMTQSPSSLSASVGDRVTITCRASQDIDDGLAWYQQKPGKAPKLLIYRTSRLQSGVPSRFSGSGSGTDFTLTISSLQPEDFATYYCQPTWLPPCTFGQGTKVEIKR
# notes: VK dAb
# Columns and labels:
# [1] = target: T1, human IL-1α; assay: Table 62 IC50; RBA presumed
# [2] = target: T1, human IL-1α; assay: cell-based or functional assay
Binder,IC50 [1],ND50 [2]
B1,10 nM,–
B2,10 nM,–
B3,30 nM,–
B4,60 nM,–
B5,80 nM,–
B6,20 nM,–
B7,> 1000 nM,–
B8,–,1000 nM
B9,–,> 20000 nM
B10,–,4000 nM
B11,–,> 20000 nM
B12,–,0.09 nM
B13,–,0.1 nM
B14,–,615 nM
B15,> 500 nM,–
B16,–,> 10000 nM
B17,> 100 nM,–
B18,80 nM,–
B19,–,0.044 nM
B20,10 nM,–
B21,20 nM,–
B22,50 nM,–
B23,3 nM,–
B24,10 nM,–

Binder,IC50 [1],ND50 [2]
B25,200 nM,–
B26,80 nM,–
B27,30 nM,–
B28,–,0.014 nM
B29,–,0.2 nM
B30,–,20 nM
B31,–,0.008 nM
B32,–,0.01 nM
B33,–,100 nM
B34,–,0.005 nM
B35,–,0.133 nM
B36,–,0.05 nM
B37,–,0.075 nM
B38,–,0.1 nM
B39,–,0.15 nM
B40,–,0.05 nM
B41,–,0.186 nM
B42,200 nM,–
B43,> 500 nM,–
B44,–,7000 nM
B45,100 nM,–
B46,–,1000 nM
B47,–,5000 nM
B48,> 500 nM,–
